Assay results taken from paper PMC3466232, “FUS-NLS/Transportin 1 Complex Structure Provides Insights into the Nuclear Targeting Mechanism of FUS and the Implications in ALS” (PLoS ONE, 2012).

T1: human transportin 1 (Trn1, residues 1-890) (human, UniProt Q92973-2 1-890)
T1 construct: transportin 1 (Trn1), human, full-length, residues 1-890; numbers count on: the 890-residue form; Cloned in pGEX-4T-3 with a TEV site; clone was a gift from Y. M. Chook; source: E. coli BL21 (DE3), purified (glutathione Sepharose, TEV cleavage, HiTrap Q FF, Superdex 200)
T1 sequence (looked up): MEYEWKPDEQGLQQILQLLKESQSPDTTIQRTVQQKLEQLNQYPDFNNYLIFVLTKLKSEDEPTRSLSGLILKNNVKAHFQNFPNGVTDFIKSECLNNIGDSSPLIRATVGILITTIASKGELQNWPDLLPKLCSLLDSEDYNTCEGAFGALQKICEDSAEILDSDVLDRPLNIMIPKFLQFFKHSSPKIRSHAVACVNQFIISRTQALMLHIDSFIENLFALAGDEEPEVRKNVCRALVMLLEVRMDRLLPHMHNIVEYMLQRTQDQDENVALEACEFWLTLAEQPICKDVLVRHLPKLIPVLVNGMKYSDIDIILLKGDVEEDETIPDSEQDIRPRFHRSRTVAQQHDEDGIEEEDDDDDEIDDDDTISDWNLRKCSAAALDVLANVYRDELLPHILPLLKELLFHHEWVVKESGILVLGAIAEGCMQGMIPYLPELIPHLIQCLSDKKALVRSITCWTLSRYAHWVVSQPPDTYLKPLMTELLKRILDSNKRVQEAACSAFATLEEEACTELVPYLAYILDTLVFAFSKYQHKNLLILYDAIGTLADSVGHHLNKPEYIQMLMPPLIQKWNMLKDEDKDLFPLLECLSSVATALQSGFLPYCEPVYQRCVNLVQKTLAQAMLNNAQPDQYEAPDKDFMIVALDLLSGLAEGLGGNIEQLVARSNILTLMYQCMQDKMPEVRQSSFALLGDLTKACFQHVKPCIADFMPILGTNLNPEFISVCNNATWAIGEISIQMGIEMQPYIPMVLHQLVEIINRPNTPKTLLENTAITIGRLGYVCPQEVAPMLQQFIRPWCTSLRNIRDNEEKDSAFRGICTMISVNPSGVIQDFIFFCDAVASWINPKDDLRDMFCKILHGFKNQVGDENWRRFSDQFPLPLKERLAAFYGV


Experiments:
Conditions in all cases: both partners purified
[1] = molecular target: T1, human transportin 1 (Trn1, residues …); assay: SPR; BIAcore 3000, 25°C; Trn1 immobilised on a CM5 chip by amine coupling (about 8600 RU); FUS-NLS injected at increasing concentrations, 50 µl/min; 20 mM HEPES pH 7.3, 110 mM potassium acetate, 2 mM magnesium acetate, 2 mM EGTA, 2 mM DTT, 10% glycerol, 0.005% Tween 20; 1:1 Langmuir fit
[2] = molecular target: T1, human transportin 1 (Trn1, residues …); assay: SPR; BIAcore 3000, 25°C; Trn1 immobilised on a CM5 chip by amine coupling (about 8600 RU); same running buffer; kd too fast to be fit, KD from steady state equilibrium binding against the concentration of the injected protein
[3] = molecular target: T1, human transportin 1 (Trn1, residues …); assay: SPR; BIAcore 3000, 25°C; Trn1 immobilised on a CM5 chip by amine coupling (about 8600 RU); FUS-NLS injected at increasing concentrations, 50 µl/min; 20 mM HEPES pH 7.3, 110 mM potassium acetate, 2 mM magnesium acetate, 2 mM EGTA, 2 mM DTT, 10% glycerol, 0.005% Tween 20; 1:1 Langmuir fit; remark: listed apart in the source

Row | Binder | Kd [1] | koff [1] | kon [1] | Kd [2] | binding result [3]
1 | RGGRGGGDRGGFGPGKMDSRGEHRQDRRERPY (domain or fragment, UniProt P35637 495-526, looked up, Cloned in pGEX-6P-2; also called FUS-NLS(WT); WT; not shown: GST, N-terminal, cleaved) [nuclear localization sequence of human FUS (FUS-NLS, residues 495-526), wild type] | 1.7 nM | 0.0037 s⁻¹ | 2.3e+06 M⁻¹ s⁻¹ | – | –
2 | RGGRGGGDRGGFGPGKMDSRCEHRQDRRERPY (domain or fragment, human, UniProt P35637 495-526, looked up, ALS-associated mutation found in patients; made by site-directed mutagenesis; not shown: GST, N-terminal, cleaved) [FUS-NLS(G515C)] | 2.8 nM | 0.0051 s⁻¹ | 1.8e+06 M⁻¹ s⁻¹ | – | –
3 | RGGRGGGDRGGFGPGKMDSRGEHGQDRRERPY (domain or fragment, human, UniProt P35637 495-526, looked up, ALS-associated mutation found in patients; made by site-directed mutagenesis; not shown: GST, N-terminal, cleaved) [FUS-NLS(R518G)] | – | – | – | 150 nM | –
4 | RGGRGGGDRGGFGPGKMDSRGEHRQDRGERPY (domain or fragment, human, UniProt P35637 495-526, looked up, ALS-associated mutation found in patients; made by site-directed mutagenesis; not shown: GST, N-terminal, cleaved) [FUS-NLS(R522G)] | – | – | – | 350 nM | –
5 | RGGRGGGDRGGFGPGKMDSRGEHRQDRRERPA (domain or fragment, human, UniProt P35637 495-526, looked up, Designed from the structure; not found in familial ALS patients; not shown: GST, N-terminal, cleaved) [FUS-NLS(Y526A)] | – | – | – | 890 nM | –
6 | RGGRGGGDRGGFGPGKMDSRGEHRQDGRERPY (domain or fragment, human, UniProt P35637 495-526, looked up, ALS-associated mutation found in patients; made by site-directed mutagenesis; not shown: GST, N-terminal, cleaved) [FUS-NLS(R521G)] | 25 nM | 0.0034 s⁻¹ | 140000 M⁻¹ s⁻¹ | – | –
7 | RGGRGGGDRGGFGPGEMDSRGEHRQDRRERPY (domain or fragment, human, UniProt P35637 495-526, looked up, ALS-associated mutation found in patients; made by site-directed mutagenesis; not shown: GST, N-terminal, cleaved) [FUS-NLS(K510E)] | – | – | – | 150 nM | –
8 | RGGRGGGDRGGFGPGKMDSRGEHRQDRRESPY (domain or fragment, human, UniProt P35637 495-526, looked up, ALS-associated mutation found in patients; made by site-directed mutagenesis; not shown: GST, N-terminal, cleaved) [FUS-NLS(R524S)] | 10 nM | 0.058 s⁻¹ | 5.6e+06 M⁻¹ s⁻¹ | – | –
9 | RGGRGGGDRGGFGPGKMDPRGEHRQDRRERPY (domain or fragment, human, UniProt P35637 495-526, looked up, ALS-associated mutation found in patients; made by site-directed mutagenesis; not shown: GST, N-terminal, cleaved) [FUS-NLS(S513P)] | 2.4 nM | 0.023 s⁻¹ | 9.4e+06 M⁻¹ s⁻¹ | – | –
10 | RGGRGGGDRGGFGPGKMDSGGEHRQDRRERPY (domain or fragment, human, UniProt P35637 495-526, looked up, ALS-associated mutation found in patients; made by site-directed mutagenesis; not shown: GST, N-terminal, cleaved) [FUS-NLS(R514G)] | – | – | – | 67 nM | –
11 | RGGRGGGDRGGFGPGKMDSRGEHRQDRRSRPY (domain or fragment, human, UniProt P35637 495-526, looked up, Designed from the structure; not found in familial ALS patients; not shown: GST, N-terminal, cleaved) [FUS-NLS(E523S)] | 2 nM | 1.1e-05 s⁻¹ | 5500 M⁻¹ s⁻¹ | – | –
12 | RGGRGGGDRGGFGPGKMDSRGEPRQDRRERPY (domain or fragment, human, UniProt P35637 495-526, looked up, ALS-associated mutation found in patients; made by site-directed mutagenesis; not shown: GST, N-terminal, cleaved) [FUS-NLS(H517P)] | – | – | – | 140 nM | –
13 | RGGRGGGDRGGFGPGKMDSRGEHRQDRRYRPY (domain or fragment, human, UniProt P35637 495-526, looked up, Designed from the structure; not found in familial ALS patients; not shown: GST, N-terminal, cleaved) [FUS-NLS(E523Y)] | – | – | – | – | binds
14 | RGGRGGGDRGGFDPGKMDSRGEHRQDRRERPY (domain or fragment, human, UniProt P35637 495-526, looked up, ALS-associated mutation found in patients; made by site-directed mutagenesis; not shown: GST, N-terminal, cleaved) [FUS-NLS(G507D)] | 7.8 nM | 0.044 s⁻¹ | 5.7e+06 M⁻¹ s⁻¹ | – | –
15 | RGGRGGGDRGGFGPGKMDSRGEHRQDRRERLY (domain or fragment, human, UniProt P35637 495-526, looked up, ALS-associated mutation found in patients; made by site-directed mutagenesis; not shown: GST, N-terminal, cleaved) [FUS-NLS(P525L)] | – | – | – | 1200 nM | –
16 | RGGRGGGDRGGFGPGKMDSRGEHKQDRRERPY (domain or fragment, human, UniProt P35637 495-526, looked up, ALS-associated mutation found in patients; made by site-directed mutagenesis; not shown: GST, N-terminal, cleaved) [FUS-NLS(R518K)] | 13 nM | 0.078 s⁻¹ | 6e+06 M⁻¹ s⁻¹ | – | –
